In US20250186597A1 (BRIGHT PEAK THERAPEUTICS, published 2025):
Where a chain is given by its changes, count along the chain named. Names may count otherwise.

T1: IL-18R on HEK-Blue IL18R reporter cells (InvivoGen, #hkb-hmi118) (UniProt Q13478 19-541; O95256 20-599, limits assumed)
T1 sequence (looked up) 1: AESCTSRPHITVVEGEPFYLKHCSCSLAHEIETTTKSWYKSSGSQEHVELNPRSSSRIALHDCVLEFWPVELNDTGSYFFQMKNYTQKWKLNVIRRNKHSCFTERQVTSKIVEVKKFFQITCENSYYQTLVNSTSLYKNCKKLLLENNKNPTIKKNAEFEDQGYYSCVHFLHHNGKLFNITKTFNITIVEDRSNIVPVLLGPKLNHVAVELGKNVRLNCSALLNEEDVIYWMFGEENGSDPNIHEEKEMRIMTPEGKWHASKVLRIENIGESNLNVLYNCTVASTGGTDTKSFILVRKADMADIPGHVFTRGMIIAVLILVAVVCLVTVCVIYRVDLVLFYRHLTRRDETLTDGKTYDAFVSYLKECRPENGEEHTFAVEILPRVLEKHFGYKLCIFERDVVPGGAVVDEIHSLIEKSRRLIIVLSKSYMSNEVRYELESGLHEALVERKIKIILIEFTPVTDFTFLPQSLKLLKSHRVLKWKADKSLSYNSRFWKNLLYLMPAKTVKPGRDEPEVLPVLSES
T1 sequence (looked up) 2: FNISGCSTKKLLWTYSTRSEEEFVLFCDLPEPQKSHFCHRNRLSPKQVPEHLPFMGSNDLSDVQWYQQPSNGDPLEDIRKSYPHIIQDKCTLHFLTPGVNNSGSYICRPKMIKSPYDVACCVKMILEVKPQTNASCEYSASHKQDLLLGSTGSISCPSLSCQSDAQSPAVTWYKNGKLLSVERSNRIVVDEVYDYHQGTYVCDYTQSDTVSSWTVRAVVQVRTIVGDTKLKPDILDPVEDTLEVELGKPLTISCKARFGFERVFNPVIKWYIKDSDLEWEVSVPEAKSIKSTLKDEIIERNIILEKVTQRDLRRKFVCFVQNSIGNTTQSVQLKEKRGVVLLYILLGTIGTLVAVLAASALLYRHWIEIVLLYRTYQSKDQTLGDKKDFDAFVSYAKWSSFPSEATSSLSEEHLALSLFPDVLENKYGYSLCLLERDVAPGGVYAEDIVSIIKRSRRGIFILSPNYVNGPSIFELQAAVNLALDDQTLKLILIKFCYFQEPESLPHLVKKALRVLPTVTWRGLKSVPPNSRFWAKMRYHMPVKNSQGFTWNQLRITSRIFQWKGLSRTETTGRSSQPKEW

B1: IL-18 polypeptide C140 (SEQ ID NO: 72; N-terminal 4xG, E6K, V11I, C38A, K53A, T63A, C76A, C127A) (ligand)
chain: GGGGYFGKLKSKLSIIRNLNDQVLFIDQGNRPLFEDMTDSDARDNAPRTIFIISMYADSQPRGMAVAISVKCEKISTLSAENKIISFKEMNPPDNIKDTKSDIIFFQRSVPGHDNKMQFESSSYEGYFLAAEKERDLFKLILKKEDELGDRSIMFTVQNED
B2: IL-18 polypeptide C141 (SEQ ID NO: 71; N-terminal G, E6K, V11I, C38A, K53A, T63A, C76A, C127A) (ligand)
chain: GYFGKLKSKLSIIRNLNDQVLFIDQGNRPLFEDMTDSDARDNAPRTIFIISMYADSQPRGMAVAISVKCEKISTLSAENKIISFKEMNPPDNIKDTKSDIIFFQRSVPGHDNKMQFESSSYEGYFLAAEKERDLFKLILKKEDELGDRSIMFTVQNED
B3: IL-18 polypeptide C192 (SEQ ID NO: 70; N-terminal G, E6K, V11I, C38A, M51G, K53A, T63A, C76A, C127A) (ligand)
chain: B2 chain with M52G
B4: IL-18 polypeptide C154 (V11I, E31A, D37A, C38A, K53A, C76A, C127A) (ligand)
chain: YFGKLESKLSIIRNLNDQVLFIDQGNRPLFADMTDSAARDNAPRTIFIISMYADSQPRGMAVTISVKCEKISTLSAENKIISFKEMNPPDNIKDTKSDIIFFQRSVPGHDNKMQFESSSYEGYFLAAEKERDLFKLILKKEDELGDRSIMFTVQNED
B5: IL-18 polypeptide C161 (K8R, V11I, C38A, C76A, Q103E, C127A) (ligand)
chain: B4 chain with K8R, A31E, A37D, A53K, Q103E
B6: IL-18 polypeptide C158 (V11I, C38A, K53A, C76A, G108A, C127A) (ligand)
chain: B4 chain with A31E, A37D, G108A
B7: IL-18 polypeptide C164 (V11I, C38A, S55H, C76A, C127A) (ligand)
chain: B4 chain with A31E, A37D, A53K, S55H
B8: IL-18 polypeptide C162 (K8E, V11I, C38A, C76A, Q103R, C127A) (ligand)
chain: B4 chain with K8E, A31E, A37D, A53K, Q103R
B9: IL-18 polypeptide C156 (V11I, C38A, N41A, K53A, C76A, C127A) (ligand)
chain: B4 chain with A31E, A37D, N41A
B10: IL-18 polypeptide C176 (E6K, V11I, C38A, I49M, K53A, T63A, C76A, C127A) (ligand)
chain: B4 chain with E6K, A31E, A37D, I49M, T63A
B11: IL-18 polypeptide C179 (E6K, K8E, V11I, C38A, K53A, T63A, C76A, Q103R, C127A) (ligand)
chain: B4 chain with E6K, K8E, A31E, A37D, T63A, Q103R
B12: IL-18 polypeptide C174 (K8L, E6K, V11I, C38A, K53A, T63A, C76A, C127A) (ligand)
chain: B4 chain with E6K, K8L, A31E, A37D, T63A
B13: IL-18 polypeptide C177 (E6K, V11I, C38A, I49R, K53A, T63A, C76A, C127A) (ligand)
chain: B4 chain with E6K, A31E, A37D, I49R, T63A
B14: IL-18 polypeptide C155 (V11I, C38A, D40A, K53A, C76A, C127A) (ligand)
chain: B4 chain with A31E, A37D, D40A
B15: IL-18 polypeptide C159 (V11I, C38A, K53A, C76A, H109A, C127A) (ligand)
chain: B4 chain with A31E, A37D, H109A
B16: IL-18 polypeptide C157 (V11I, C38A, K53A, C76A, C127A, D132A) (ligand)
chain: B4 chain with A31E, A37D, D132A
B17: IL-18 polypeptide C165 (V11I, C38A, S55R, C76A, C127A) (ligand)
chain: B4 chain with A31E, A37D, A53K, S55R
B18: IL-18 polypeptide C183 (SEQ ID NO: 69; E6K, V11I, C38A, M51G, K53A, T63A, C76A, C127A) (ligand)
chain: B4 chain with E6K, A31E, A37D, M51G, T63A
B19: IL-18 polypeptide C184 (E6R, V11I, C38A, K53A, T63A, C76A, C127A) (ligand)
chain: B4 chain with E6R, A31E, A37D, T63A
B20: IL-18 polypeptide C168 (V11I, C38A, C76A, S105K, C127A) (ligand)
chain: B4 chain with A31E, A37D, A53K, S105K
B21: IL-18 polypeptide C167 (V11I, C38A, C76A, S105I, C127A) (ligand)
chain: B4 chain with A31E, A37D, A53K, S105I
B22: IL-18 polypeptide C181 (E6K, V11I, C38A, K53A, T63A, C76A, C127A, V153E) (ligand)
chain: B4 chain with E6K, A31E, A37D, T63A, V153E
B23: IL-18 polypeptide C182 (E6K, V11I, C38A, K53A, T63A, C76A, C127A, V153Y) (ligand)
chain: B4 chain with E6K, A31E, A37D, T63A, V153Y
B24: IL-18 polypeptide C142 (Y1M, E6K, V11I, C38A, K53A, T63A, C76A, C127A) (ligand)
chain: B4 chain with Y1M, E6K, A31E, A37D, T63A
B25: IL-18 polypeptide C178 (E6K, V11I, C38A, K53A, T63A, C76A, Q103R, C127A) (ligand)
chain: B4 chain with E6K, A31E, A37D, T63A, Q103R
B26: IL-18 polypeptide C160 (V11I, C38A, K53A, C76A, D110A, C127A) (ligand)
chain: B4 chain with A31E, A37D, D110A
B27: IL-18 polypeptide C166 (V11I, C38A, S55T, C76A, C127A) (ligand)
chain: B4 chain with A31E, A37D, A53K, S55T
B28: IL-18 polypeptide C163 (V11I, C38A, C76A, Q103K, C127A) (ligand)
chain: B4 chain with A31E, A37D, A53K, Q103K
B29: Pembrolizumab/Keytruda (antibody, human IgG4 S228P, kappa)
heavy: not shown
light: EIVLTQSPATLSLSPGERATLSCRASKGVSTSGYSYLHWYQQKPGQAPRLLIYLASYLESGVPARFSGSGSGTDFTLTISSLEPEDFAVYYCQHSRDLPLTFGGGTKVEIKRTVAAPSVFIFPPSDEQLKSGTASVVCLLNNFYPREAKVQWKVDNALQSGNSQESVTEQDSKDSTYSLSSTLTLSKADYEKHKVYACEVTHQGLSSPVTKSFNRGEC
notes: also called Lambrolizumab; MK-3475
B30: Avelumab/Bavencio (antibody, human IgG1, lambda)
heavy: not shown
light: QSALTQPASVSGSPGQSITISCTGTSSDVGGYNYVSWYQQHPGKAPKLMIYDVSNRPSGVSNRFSGSKSGNTASLTISGLQAEDEADYYCSSYTSSSTRVFGTGTKVTVLGQPKANPTVTLFPPSSEELQANKATLVCLISDFYPGAVTVAWKADGSPVKAGVETTKPSKQSNNKYAASSYLSLTPEQWKSHRSYSCQVTHEGSTVEKTVAPTECS
notes: also called MSB-0010718C; PF-06834635

Each binder was assayed against T1, IL-18R on HEK-Blue IL18R reporter cells … (assay: cell-based or functional assay).

Row | EC50, HEK-Blue IL18R reporter assay [pM] | Binder
1 | 2.5 | B1
2 | 1.68 | B2
3 | 14 | B3
4 | 11.9 | B4
5 | 2.01 | B5
6 | 15.6 | B6
7 | 3.14 | B7
8 | 2.3 | B8
9 | 11.7 | B9
10 | 0.07 | B10
11 | 0.4 | B11
12 | 0.29 | B12
13 | 0.04 | B13
14 | 0.52 | B14
15 | 19.5 | B15
16 | 1.95 | B16
17 | 1.91 | B17
18 | 0.1 | B18
19 | 0.04 | B19
20 | 7.73 | B20
21 | 5.37 | B21
22 | 0.1 | B22
23 | 0.08 | B23
24 | 0.02 | B24
25 | 0.26 | B25
26 | 2.02 | B26
27 | 4.73 | B27
28 | 1.5 | B28

These binders were tested against T2, recombinant Human Fc gamma RI/CD64 Protein (R&D systems, 1257-FC-050, CF) (human, UniProt P12314 16-288) (assay: ELISA; antibody coated, Fc gamma receptor titrated).
T2 construct: also called FcγRI/CD64; human Fc gamma receptor I (CD64)

Row | Kd [nM] | Binder
29 | 0.593 | B29

Each binder was assayed against T3, recombinant Human Fc gamma RIIIA/CD16a Protein (R&D systems, 4325-FC-050; CF) (human, UniProt P08637 17-208, limits assumed) (assay: ELISA; antibody coated, Fc gamma receptor titrated).
T3 construct: also called FcγRIIIa/CD16; human Fc gamma receptor IIIa (CD16)

Row | Kd [nM] | Binder
30 | 1660 | B29

Each binder was assayed against T4, recombinant biotinylated human FcRn (human, UniProt P55899 24-297; P61769 21-119, limits assumed, biotinylated (site not stated)) (assay: AlphaLISA competition at pH 6; competitor: human IgG on acceptor beads).
T4 construct: also called human neonatal Fc receptor (FcRn); human Fc neonatal receptor

Row | Kd [nM] | Binder
31 | 7.45 | B29
32 | 5.36 | B30
